Numbering of substitutions follows the chain as printed.

As usually defined, the EC50 is the concentration at which the effect is half-maximal. What is called IC50 is the concentration that inhibits the measured activity by half. The Kd is a measure of binding affinity in units of concentration. In general, koff refers to a measure of how fast the partners let go of each other. Broadly, the kon is a measure of how fast the partners come together. For orientation: EC50 (read off the curve) means the concentration that produces a half-maximal response.

The target of assay [1] is human PCSK9 (construct not stated) (human) (UniProt Q8NBP7). As to the kind of experiment: cell-based or functional assay.
Assay [2] addresses human PCSK9 with C-terminal 6-His tag, biotin-labelled (PCSK9-His-biotin) (human) (UniProt Q8NBP7). As to the kind of experiment: ELISA binding to human PCSK9.
In assay [3] the target is human PCSK9 with C-terminal murine Fc, biotin-labelled (PCSK9-mFc-biotin) (human) (UniProt Q8NBP7). The experiment in a line: blocking ELISA, binding of PCSK9 to LDL-R. A general note: ELISA stands for enzyme-linked immunosorbent assay.
Assay [4] deals with T1, human PCSK9 (construct not stated) (human, UniProt Q8NBP7 31-692, limits assumed).
T1 construct: Analyte in SPR (molecular weight of 85 KDa used for the molar concentration), added at 20 ug/ml in LDL-uptake assays; biotin-labelled in the serum stability ELISA; also called wild type PCSK9; Biotin-labeled PCSK9
The experiment in a line: SPR Biacore, antibody captured, human PCSK9 as analyte. On the procedure: (§1) Antibody binding affinity to human and rhesus PCSK9 was detected by SPR assay using Biacore T200 (GE). Each antibody was captured on anti-murine IgG Fc antibody (GE) or anti-human IgG Fc antibody (Genway) immobilized CM5 sensor chip (GE). Human or rhesus PCSK9 at different concentrations were injected over the sensor chip at a flow rate of […] for an association phase of 180 s, followed by 1200 s dissociation. The chip was regenerated by 2 M MgCl₂ after each binding cycle.
(§2) The sensorgrams for blank surface and buffer channel are subtracted from the test sensorgrams. The experimental data was fitted by 1:1 model using Langmiur analysis. Molecular weight of 85 KDa was used to calculate the molar concentration of analyte.
In general terms: SPR reads the build-up and loss of mass on a sensor chip optically.

Assay [5] concerns the target T2, rhesus (monkey) PCSK9, SPR analyte, construct not stated (rhesus monkey, UniProt A8T666 31-692, limits assumed).
T2 construct: also called rhesus PCSK9
As to the kind of experiment: SPR Biacore, antibody captured, monkey PCSK9 as analyte. The procedure: as §1, §2

The target in assay [6] is T1, human PCSK9 (construct not stated). The experiment in a line: cell-based or functional assay.
The target in assay [7] is T3, rhesus PCSK9-His (Sino Biological) (rhesus monkey, UniProt A8T666 31-692, limits assumed).
T3 construct: also called rhesus monkey PCSK9; monkey PCSK9
As to the kind of experiment: ELISA, rhesus PCSK9-His captured on anti-His antibody. On the procedure:
ELISA plates (Nunc) were coated with anti-His antibody (Genscript) at 1 μg/ml overnight at 4° C. After blocking and washing, 1 μg/ml rhesus PCSK9-His (Sino Biological) was added and incubated for 1 h. The antibody samples were added to the plates and incubate at room temperature for 1 h. The plates were then washed and subsequently incubated with secondary antibody goat anti mouse-IgG-Fc-HRP (Bethyl) for 45 min. After washing, TMB substrate was added and the interaction was stopped by 2M HCl. The absorbance at 450 nm was read using a microplate reader (Molecular Device).
Binding to monkey PCSK9: the affinity of selected antibodies binding to rhesus monkey PCSK9 was measured by ELISA (see FIG. 4).

For assay [8], the target named is T4, human PCSK9 with C-terminal 6-His tag, biotin-labelled (PCSK9-His-biotin) (human, UniProt Q8NBP7 31-692, biotin-labelled, site not stated).
T4 construct: Made in HEK293, purified on Ni column
As to the kind of experiment: ELISA, purified antibody on PCSK9-His-biotin captured on streptavidin. On the procedure:
Binding assay by ELISA: Plates (Nunc) were coated with Streptavidin at 1 μg/ml overnight at 4° C. After blocking and washing, 250 ng/ml PCSK9-His-biotin was added and incubated for 1 h. Then hybridoma supernatants were transferred to the plates and incubate at room temperature for 1 h. The plates were then washed and subsequently incubated with secondary antibody goat anti mouse-IgG-Fc-HRP (Bethyl) for 1 h. After washing, TMB substrate was added and the interaction was stopped by 2M HCl. The absorbance at 450 nm was read using a microplate reader (Molecular Device).
(§3) Binding and blocking activities were confirmed using purified antibodies (FIGS. 1 and 2).

In assay [9] the target is T1, human PCSK9 (construct not stated). As to the kind of experiment: SPR Biacore T200, antibody captured by anti-Fc antibody, PCSK9 as analyte, 1:1 fit. The procedure:
as §1, §2
Kinetic affinity by SPR: the affinities of selected clones binding to human PCSK9 were measured by SPR assay.

Assay [10] deals with T5, human PCSK9 with C-terminal murine Fc, biotin-labelled (PCSK9-mFc-biotin) (human, UniProt Q8NBP7 31-692, limits assumed, biotin-labelled, site not stated).
T5 construct: not shown: murine Fc (mFc) fused at the C-terminus
As to the kind of experiment: competition ELISA, antibody premixed with PCSK9-mFc-biotin, binding to coated LDL-R. On the procedure: Blocking assay by ELISA: Plates (Nunc) were coated with LDL-R overnight at 4° C. Hybridoma supernatants were mixed with 250 ng/ml PCSK9-mFc-biotin and incubated at 4° C. overnight. After blocking and washing, the mixture were added to the plates and incubated for 1 h. The plates were then washed and subsequently incubated with streptavidin-HRP. After washing, TMB substrate was added and the interaction was stopped by 2M HCl. The absorbance at 450 nm was read using a microplate reader (Molecular Device).
as §3

The target of assay [11] is T4, human PCSK9 with C-terminal 6-His tag, …. As to the kind of experiment: ELISA binding to human PCSK9.
Assay [12] deals with T5, human PCSK9 with C-terminal murine Fc, …. As to the kind of experiment: blocking ELISA, binding of PCSK9 to LDL-R.
Assay [13] deals with T1, human PCSK9 (construct not stated). As to the kind of experiment: ELISA, biotin-labelled PCSK9 on a streptavidin plate, antibody in human serum, 0 days at 37 C, goat anti-human-HRP, OD450. On the procedure:
(§4) After incubation at 37° C., samples were rapidly frozen in dry-ice-ethanol bath and kept at −80° C. The samples were rapidly thawed before stability test. The plates were coated with streptavidin in Na₂CO₃/NaHCO₃ (pH 9.2) buffer at 4° C. overnight. The plates were washed with 0.1% Tween-PBS once before being blocked with 2% BSA/PBS. Biotin-labeled PCSK9 was added and incubated for 1 hr. After washing, then diluted serum samples were transferred to the plates and incubated for 1 hr at room temperature. Goat anti-human-HRP antibody were added to the wells and incubated for 1 hr. After washing, TMB substrate was added and the interaction was stopped by 2 M HCl. The absorbance at 450 nm was read using a microplate reader (Molecular Device).
(§5) The antibody binding to human PCSK9 was tested by ELISA after incubation in human serum at 37° C.

For assay [14] the target is unchanged. The experiment in a line: ELISA, biotin-labelled PCSK9 on a streptavidin plate, antibody in human serum, 3 days at 37 C, goat anti-human-HRP, OD450. The procedure:
as §4, §5

For assay [15] the target is unchanged. The experiment in a line: SPR, human PCSK9.
Assay [16] has as its target T2, rhesus (monkey) PCSK9, SPR analyte, …. The experiment in a line: SPR, monkey PCSK9. On the procedure:
as §1, §2
The binding activity of engineered antibody was evaluated by SPR affinity test.

T2 sequence (A8T666 31-692 limits assumed): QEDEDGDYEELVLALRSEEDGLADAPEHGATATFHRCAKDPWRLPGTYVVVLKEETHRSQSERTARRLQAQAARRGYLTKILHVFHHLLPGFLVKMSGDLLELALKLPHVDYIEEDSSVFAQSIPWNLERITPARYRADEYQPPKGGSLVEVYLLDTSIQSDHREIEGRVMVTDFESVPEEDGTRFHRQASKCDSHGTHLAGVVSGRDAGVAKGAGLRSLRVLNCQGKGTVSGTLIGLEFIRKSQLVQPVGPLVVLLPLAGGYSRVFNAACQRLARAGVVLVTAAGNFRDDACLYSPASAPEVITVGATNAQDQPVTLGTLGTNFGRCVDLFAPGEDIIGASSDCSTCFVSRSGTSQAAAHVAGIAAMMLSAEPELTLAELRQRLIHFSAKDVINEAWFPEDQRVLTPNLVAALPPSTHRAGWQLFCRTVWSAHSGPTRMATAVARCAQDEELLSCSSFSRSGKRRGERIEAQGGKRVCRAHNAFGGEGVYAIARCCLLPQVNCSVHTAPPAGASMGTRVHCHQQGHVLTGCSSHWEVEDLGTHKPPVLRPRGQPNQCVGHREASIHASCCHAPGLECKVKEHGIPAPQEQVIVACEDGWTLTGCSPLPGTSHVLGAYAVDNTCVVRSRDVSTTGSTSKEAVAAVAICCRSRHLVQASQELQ
T3 sequence (A8T666 31-692 limits assumed): as above

Turning to Repatha (evolocumab) (antibody), in assay [1], the IC50 (nM), LDL-uptake assay, HepG2 turned out to be 77.6 nM and the IC50 (nM), LDL-uptake assay, Huh-7 was determined as 98.2 nM. The same molecule displayed a 50% effective concentration (EC50) in assay [2] of 38 pM. The IC50 in assay [3] was 2100 pM.

B1: 2.6.6-z4-uIgG1k (antibody, V domains shown)
VH: QVQLVQSGAEVKKPGASVKVSCKASGYTFTSYWIHWVRQAPGQGLEWMGELNPSDGRTNYNEKFKNKATMTVDTSTSTVYMELSSLRSEDTAVYYCARSNFYGSSSFANWGQGTLVTVSS
VL: DIQMTQSPSSLSASVGDRVTITCSASSSVSYMNWYQQKPGKAPKLLIYGISNLASGVPSRFSGSGSGTDFTFTISSLQPEDIATYYCQQRSSYPPTFGGGTKVEIK
notes: Humanized antibody of 2.6.6 with a human constant region of IgG1 isotype, kappa light chain
On to B1, for which, in assay [4], binding was characterised by a dissociation constant (Kd) of 2110 pM, the dissociation rate constant (koff) was 4.69e-05 s⁻¹ and the kon is 22200 M⁻¹ s⁻¹. In assay [5], this molecule had a Kd of 190 pM, a koff of 3.78e-06 s⁻¹ and an association rate constant (kon) of 19900 M⁻¹ s⁻¹.

B2: 2.12.12.4 (antibody, V domains shown)
VH: EVQLQQSGPELVKPGASVKMSCEASGYTFTNYVMHWVKQKPGQGLEWIGYINPYNDYIKYNEKFKGKATLTSDKSSSTTYLEVSSLTSEDSAVYYCGRQRYYGYRPYYAMDYWGQGTSVTVSS
VL: NIVLTQSPASLAVSLGQRATISCRASESVDGYGNVFMHWYQQKPGQPPKLLIYLASNLESGVPDRFSGSGSRTDFTLTIDPVEADDAATYYCQQNNKDPWTFGGGTKLEIK
notes: Mouse monoclonal antibody purified from hybridoma supernatant; also called parental murine antibody
In the case of B2, in assay [6], the “IC50 (nM), LDL-uptake assay in HepG2 cells” value worked out at 72.5 nM. Further, the dissociation constant (Kd) in assay [7] came out at 500 pM. In [8], this molecule registered an EC50 of 140 pM. In assay [9], this molecule showed an equilibrium dissociation constant (Kd) of 53.1 pM, an off-rate constant (koff) of 5.43e-05 s⁻¹ and a kon of 1.02e+06 M⁻¹ s⁻¹. This molecule also displayed a half-inhibitory concentration (IC50) in assay [10] of 3000 pM.

B3: 2.12.12.4-z4-uIgG4k (antibody, V domains shown)
VH: QVQLVQSGAEVKKPGSSVKVSCEASGYTFTNYVMHWVRQAPGQGLEWMGYINPYNDYIKYNEKFKGKATITADKSTSTAYMELSSLRSEDTAVYYCGRQRYYGYRPYYAMDYWGQGTLVTVSS
VL: B2 VL with N1D, L15P, S22T, D64A, R72G, D80N, D85N, A87T, T89N, L108V
notes: the chains here are derived by undoing them; Human constant region of IgG4 isotype, kappa light chain
B3 gave a 50% effective concentration (EC50) in assay [11] of 26 pM. The molecule further yielded an IC50 in [12] of 1900 pM. The Kd is 27.1 pM in [4] and 379 pM in [5]. The koff in assay [4] was determined as 2.67e-05 s⁻¹; in [5] it was 0.000303 s⁻¹. In addition, the association rate constant (kon) is 984000 M⁻¹ s⁻¹ in assay [4] and 800000 M⁻¹ s⁻¹ in assay [5]. The results for the concentration for a half-maximal effect (EC50 (read off the curve)) in assay [13] and in assay [14] were about 60 pM and about 70 pM, respectively.

B4: 2.12.12.4-v2-z4-uIgG4k (antibody, V domains shown)
VH: B3 VH
VL: B2 VL with N1D, L15P, S22T, D30E, D64A, R72G, D80N, A87T, T89N, L108V
notes: Engineered humanized antibody with a human constant region of IgG4 isotype, kappa light chain; also called engineered antibody lead
Take B4: in assay [15], the equilibrium dissociation constant (Kd) is 42.3 pM, the off-rate constant (koff) came out at 4.32e-05 s⁻¹ and the kon stood at 1.02e+06 M⁻¹ s⁻¹. In assay [16], this molecule registered a Kd of 522 pM, a koff of 0.000291 s⁻¹ and a kon of 558000 M⁻¹ s⁻¹.

B5: 2.6.6 (antibody, V domains shown)
VH: QVQLQQPGAEVVKPGASVTVSCKASGYTFTSYWIHWVMQRPGQGLEWIGELNPSDGRTNYNEKFKNKATLTVDTSSSTVYMQLSSLTSEDSAVYYCARSNFYGSSSFANWGQGTLVTVSA
VL: EILLTQSPAIIAASPGEKVTITCSASSSVSYMNWYQQKPGSSPILWIYGISNLASGVPARFSGSGSGTSFSFTINNMEAEDVATYYCQQRSSYPPTFGGGTKLEIK
notes: Mouse monoclonal antibody purified from hybridoma supernatant; also called 2.6.6 (mouse antibody)
Regarding B5, the “IC50 (nM), LDL-uptake assay in HepG2 cells” value in [6] stood at 130 nM. Also, in assay [7], the affinity, expressed as Kd, was 600 pM. The molecule also showed a 50% effective concentration (EC50) in assay [8] of 140 pM. In assay [9], this molecule yielded a dissociation constant Kd of 1080 pM, a dissociation rate constant (koff) of 0.000148 s⁻¹ and a kon of 137000 M⁻¹ s⁻¹. Moreover, in assay [10], the IC50 worked out at 8500 pM.

The values above are taken from patent publication US20200165354A1 (WUXI BIOLOGICS IRELAND, published 2020).
